Blank lines part the entries; values can stand above or below the substance they belong to.
How the values were obtained:
Assay in all cases: SEC; size exclusion chromatography of the purified six-His-tagged recombinant proteins; data not shown; conditions not given
[1] = biological target: Schistosoma mansoni phytochelatin synthase, N-truncated protein (PCS66-591) (Schistosoma mansoni)
[2] = biological target: Schistosoma mansoni phytochelatin synthase, N- and C-truncated form (PCS66-300) (Schistosoma mansoni)
[3] = biological target: Schistosoma mansoni phytochelatin synthase, full length protein (PCS1-591) (Schistosoma mansoni)

stoichiometry N [1]: 2
Substance: Schistosoma mansoni phytochelatin synthase, N-truncated protein (PCS66-591) (domain or fragment)

stoichiometry N [2]: 2
Substance: Schistosoma mansoni phytochelatin synthase, N- and C-truncated form (PCS66-300) (domain or fragment)

stoichiometry N [3]: 2
Substance: Schistosoma mansoni phytochelatin synthase, full length protein (PCS1-591) (enzyme)
